Reference: US20150023971A1
Each block holds one substance with its values, some of them ahead of it.

Legend:
[1] = target: his-tagged sortilin luminal domain, mutant F165A (human) (UniProt Q99523); assay: SPR (Biacore), mutant immobilised on CM5, GST-pro-dom-NGF 10-50 nM, 1:1 fit
[2] = target: his-tagged sortilin luminal domain, mutant F170A (human) (UniProt Q99523); assay: as above
[3] = target: his-tagged sortilin luminal domain, mutant F174A (human) (UniProt Q99523); assay: as above
[4] = target: his-tagged sortilin luminal domain, mutant K172A (human) (UniProt Q99523); assay: as above
Sequence of his-tagged sortilin luminal domain, mutant K172A (human) (Q99523 other isoform, or with tags, fused parts or gaps K172A K172A limits assumed): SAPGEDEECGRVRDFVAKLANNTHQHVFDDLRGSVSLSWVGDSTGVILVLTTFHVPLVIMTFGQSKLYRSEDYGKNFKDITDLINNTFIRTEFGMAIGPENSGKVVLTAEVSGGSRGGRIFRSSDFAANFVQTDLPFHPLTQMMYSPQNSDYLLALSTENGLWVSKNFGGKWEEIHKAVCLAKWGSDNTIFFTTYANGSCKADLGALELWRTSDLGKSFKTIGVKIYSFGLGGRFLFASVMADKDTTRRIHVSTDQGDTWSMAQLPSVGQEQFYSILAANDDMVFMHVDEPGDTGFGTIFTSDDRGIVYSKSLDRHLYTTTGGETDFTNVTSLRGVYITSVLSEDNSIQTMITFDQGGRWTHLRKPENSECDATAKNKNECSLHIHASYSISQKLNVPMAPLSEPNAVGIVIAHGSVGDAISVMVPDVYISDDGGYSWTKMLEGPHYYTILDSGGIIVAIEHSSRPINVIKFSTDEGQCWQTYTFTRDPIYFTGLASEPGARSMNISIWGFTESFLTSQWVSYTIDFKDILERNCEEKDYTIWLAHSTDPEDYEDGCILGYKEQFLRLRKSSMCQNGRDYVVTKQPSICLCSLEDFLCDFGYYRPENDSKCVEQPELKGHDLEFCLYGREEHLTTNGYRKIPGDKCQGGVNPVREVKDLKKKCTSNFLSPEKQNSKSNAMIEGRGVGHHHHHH

[5] = target: his-tagged sortilin luminal domain, mutant R160A (human) (UniProt Q99523); assay: as above
Sequence of his-tagged sortilin luminal domain, mutant R160A (human) (Q99523 other isoform, or with tags, fused parts or gaps R160A R160A limits assumed): as the sequence (Q99523 other isoform, or with tags, fused parts or gaps K172A K172A limits assumed) above, with R116A, A128K counted along it

[6] = target: his-tagged sortilin luminal domain, mutant R163A (human) (UniProt Q99523); assay: as above
Sequence of his-tagged sortilin luminal domain, mutant R163A (human) (Q99523 other isoform, or with tags, fused parts or gaps R163A R163A limits assumed): as the sequence (Q99523 other isoform, or with tags, fused parts or gaps K172A K172A limits assumed) above, with R119A, A128K counted along it

[7] = target: his-tagged sortilin luminal domain, mutant R166A (human) (UniProt Q99523); assay: as above
Sequence of his-tagged sortilin luminal domain, mutant R166A (human) (Q99523 other isoform, or with tags, fused parts or gaps R166A R166A limits assumed): as the sequence (Q99523 other isoform, or with tags, fused parts or gaps K172A K172A limits assumed) above, with R122A, A128K counted along it

[8] = target: purified human Sortilin extracellular domain (produced in stably transfected CHO cells) (human) (UniProt Q99523); assay: SPR (Biacore), 25-500 nM propeptide over immobilised Sortilin extracellular domain
Sequence of purified human Sortilin extracellular domain (produced in stably transfected CHO cells) (human) (Q99523 78-755 V650M limits assumed): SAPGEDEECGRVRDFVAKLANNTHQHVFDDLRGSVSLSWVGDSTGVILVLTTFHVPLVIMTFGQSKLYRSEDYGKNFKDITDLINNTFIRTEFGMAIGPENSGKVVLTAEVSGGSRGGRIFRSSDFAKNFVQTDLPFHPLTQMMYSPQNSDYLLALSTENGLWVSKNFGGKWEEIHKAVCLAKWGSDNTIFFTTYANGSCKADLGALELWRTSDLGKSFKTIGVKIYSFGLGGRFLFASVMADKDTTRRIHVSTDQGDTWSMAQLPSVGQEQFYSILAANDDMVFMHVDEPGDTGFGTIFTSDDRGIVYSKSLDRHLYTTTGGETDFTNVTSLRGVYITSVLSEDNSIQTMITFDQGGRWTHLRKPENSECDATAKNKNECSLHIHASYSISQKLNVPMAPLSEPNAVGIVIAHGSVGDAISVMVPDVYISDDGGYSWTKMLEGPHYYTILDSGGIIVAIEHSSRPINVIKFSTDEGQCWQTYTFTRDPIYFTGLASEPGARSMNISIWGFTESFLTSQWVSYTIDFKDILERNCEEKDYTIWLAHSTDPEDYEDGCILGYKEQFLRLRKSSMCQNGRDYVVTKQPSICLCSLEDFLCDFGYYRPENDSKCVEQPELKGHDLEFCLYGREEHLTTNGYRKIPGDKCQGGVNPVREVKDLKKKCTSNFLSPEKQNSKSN

[9] = target: purified human Sortilin extracellular domain (produced in stably transfected CHO cells) (human) (UniProt Q99523); assay: SPR (Biacore) competition, inhibitor prebound, then coinjected with 200 nM proNGF over immobilised Sortilin
[10] = target: T1, recombinant his-S-tagged pro-domain of human BDNF (residues Ala1-Arg110), from pET-30 Xa/LIC, E. coli (human) (UniProt P23560); assay: SPR (Biacore 2000), 390 nM Sortilin over immobilised pro-domain (˜300 fmol/mm2)
T1 sequence: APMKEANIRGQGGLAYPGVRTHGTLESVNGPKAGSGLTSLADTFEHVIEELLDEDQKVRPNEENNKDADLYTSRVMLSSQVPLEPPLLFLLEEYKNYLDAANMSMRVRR

Sequence of his-tagged sortilin luminal domain, mutant F165A (human) (Q99523 other isoform, or with tags, fused parts or gaps F165A F165A limits assumed): as the sequence (Q99523 other isoform, or with tags, fused parts or gaps K172A K172A limits assumed) above, with F121A, A128K counted along it
Sequence of his-tagged sortilin luminal domain, mutant F170A (human) (Q99523 other isoform, or with tags, fused parts or gaps F170A F170A limits assumed): as the sequence (Q99523 other isoform, or with tags, fused parts or gaps K172A K172A limits assumed) above, with F126A, A128K counted along it
Sequence of his-tagged sortilin luminal domain, mutant F174A (human) (Q99523 other isoform, or with tags, fused parts or gaps F174A F174A limits assumed): as the sequence (Q99523 other isoform, or with tags, fused parts or gaps K172A K172A limits assumed) above, with A128K, F130A counted along it
Sequence of recombinant human Sortilin ectodomain with C-terminal poly-histidine tag (pCEP-Pu, EBNA293/HEK293 cells), ending at Ser725 (Q99523 other isoform, or with tags, fused parts or gaps limits assumed): as the sequence (Q99523 other isoform, or with tags, fused parts or gaps K172A K172A limits assumed) above, with A128K counted along it

Kd [1]: 3.86 nM
Kd [2]: 5.59 nM
Kd [3]: 4.27 nM
Kd [4]: 3.91 nM
Kd [5]: 1.89 nM
kon [5]: 147000 M⁻¹ s⁻¹
Kd [6]: 2.7 nM
Kd [7]: 4.38 nM
Substance: GST-NGF-pro-domain fusion protein (Nykjaer et al., Nature 2004) (from UniProt P01138 19-121)

Kd [8]: 8 nM
percent inhibition of proNGF binding to Sortilin [9]: 85%
Substance: human NGF-propeptide expressed in E. coli

response (RU) [10]: 300 RU
Substance: recombinant human Sortilin ectodomain with C-terminal poly-histidine tag (pCEP-Pu, EBNA293/HEK293 cells), ending at Ser725 (from UniProt Q99523 78-755) (receptor)
